Reference: US11352401

Biological target: T1, HLA-A*01 (human)
T1 construct: MHC monomer made peptide-receptive by UV cleavage of a UV-sensitive ligand; also called peptide-receptive MHC class I monomer
Assay: UV peptide-exchange ELISA; ++++ = yield >75%
Text: Candidate peptides for T cell based therapies according to the present invention were further tested for their MHC binding capacity (affinity). The individual peptide-MHC complexes were produced by UV-ligand exchange, where a UV-sensitive peptide is cleaved upon UV-irradiation, and exchanged with the peptide of interest as analyzed. Only peptide candidates that can effectively bind and stabilize the peptide-receptive MHC molecules prevent dissociation of the MHC complexes. To determine the yield of the exchange reaction, an ELISA was performed based on the detection of the light chain (β2m) of stabilized MHC complexes. The assay was performed as generally described in Rodenko et al. (Rodenko et al., 2006).
96 well MAXISorp plates (NUNC) were coated over night with 2 ug/ml streptavidin in PBS at room temperature, washed 4× and blocked for 1 h at 37° C. in 2% BSA containing blocking buffer. […] Peptide-MHC monomers of the UV-exchange reaction were diluted 100-fold in blocking buffer. Samples were incubated for 1 h at 37° C., washed four times, incubated with 2 ug/ml HRP conjugated anti-β2m for 1h at 37° C., washed again and detected with TMB solution that is stopped with […]. Absorption was measured at 450 nm.

Binder | peptide exchange yield [%]
RSDDTAVYY [RSDDTAVYY (SEQ ID NO: 170)] | > 75
STAKSATWTY [STAKSATWTY (SEQ ID NO: 179)] | > 75
ETEEGIYWRY [ETEEGIYWRY (SEQ ID NO: 405)] | > 75
TTDFPSESSFEY [TTDFPSESSFEY (SEQ ID NO: 443)] | > 75
LSDTSVIQFY [LSDTSVIQFY (SEQ ID NO: 159)] | > 75
LTEDKETLQY [LTEDKETLQY (SEQ ID NO: 420)] | > 75
LLDPNPHMY [LLDPNPHMY (SEQ ID NO: 155)] | > 75
QTDDTWRTEY [QTDDTWRTEY (SEQ ID NO: 435)] | > 75
STDGKHWWEY [STDGKHWWEY (SEQ ID NO: 437)] | > 75
ETARKFLYY [ETARKFLYY (SEQ ID NO: 404)] | > 75
ISDRYYTALY [ISDRYYTALY (SEQ ID NO: 413)] | > 75
TLDSALNAASYY [TLDSALNAASYY (SEQ ID NO: 441)] | > 75
VSDSECLSRY [VSDSECLSRY (SEQ ID NO: 189)] | > 75
STDPWIQMAY [STDPWIQMAY (SEQ ID NO: 180)] | > 75
GTEFTTILY [GTEFTTILY (SEQ ID NO: 148)] | > 75
GTEFTTVLY [GTEFTTVLY (SEQ ID NO: 149)] | > 75
FSDNDKLYLY [FSDNDKLYLY (SEQ ID NO: 407)] | > 75
ASEAEMRLFY [ASEAEMRLFY (SEQ ID NO: 394)] | > 75
NTEDSSMSGYLY [NTEDSSMSGYLY (SEQ ID NO: 429)] | > 75
TLEDIATSHLY [TLEDIATSHLY (SEQ ID NO: 183)] | > 75
GTVYEDLRY [GTVYEDLRY (SEQ ID NO: 411)] | > 75
MIDVTKSYY [MIDVTKSYY (SEQ ID NO: 422)] | > 75
ASEITSKGASLY [ASEITSKGASLY (SEQ ID NO: 397)] | > 75

Binder | peptide exchange yield [%]
ILDEVIMGY [ILDEVIMGY (SEQ ID NO: 412)] | > 75
FVDPLVTNY [FVDPLVTNY (SEQ ID NO: 409)] | > 75
DSDSCHFNY [DSDSCHFNY (SEQ ID NO: 138)] | > 75
TSDFSRFTNY [TSDFSRFTNY (SEQ ID NO: 442)] | > 75
DSDESYMEKSLY [DSDESYMEKSLY (SEQ ID NO: 401)] | > 75
AAEIGDKSWLY [AAEIGDKSWLY (SEQ ID NO: 134)] | > 75
NTEGLHHLY [NTEGLHHLY (SEQ ID NO: 430)] | > 75
YSDEDVTKY [YSDEDVTKY (SEQ ID NO: 200)] | > 75
RSDPVTLNVLY [RSDPVTLNVLY (SEQ ID NO: 171)] | > 75
ASEASRLAHY [ASEASRLAHY (SEQ ID NO: 395)] | > 75
NSDEQKITEMVY [NSDEQKITEMVY (SEQ ID NO: 427)] | > 75
QTETGTPYMLY [QTETGTPYMLY (SEQ ID NO: 436)] | > 75
QTDCAPNNGY [QTDCAPNNGY (SEQ ID NO: 434)] | > 75
ASEDSVLLY [ASEDSVLLY (SEQ ID NO: 135)] | > 75
NSELSCQLY [NSELSCQLY (SEQ ID NO: 428)] | > 75
YSDDGQKWTVY [YSDDGQKWTVY (SEQ ID NO: 450)] | > 75
ATDIPCLLY [ATDIPCLLY (SEQ ID NO: 399)] | > 75
VTEESFDSKFY [VTEESFDSKFY (SEQ ID NO: 192)] | > 75
YVDAVLGKGHQY [YVDAVLGKGHQY (SEQ ID NO: 452)] | > 75
ATSKFMEFY [ATSKFMEFY (SEQ ID NO: 137)] | > 75
SADDIRGIQSLY [SADDIRGIQSLY (SEQ ID NO: 174)] | > 75
SSDEVNFLVY [SSDEVNFLVY (SEQ ID NO: 177)] | > 75
QTDHPQPILDRY [QTDHPQPILDRY (SEQ ID NO: 168)] | > 75

Binder | peptide exchange yield [%]
LSDLLKQGY [LSDLLKQGY (SEQ ID NO: 158)] | > 75
LLDTAQKNLY [LLDTAQKNLY (SEQ ID NO: 416)] | > 75
RTEFNLNQY [RTEFNLNQY (SEQ ID NO: 173)] | > 75
NLDIIQQEY [NLDIIQQEY (SEQ ID NO: 425)] | > 75
NLDAVHDITVAY [NLDAVHDITVAY (SEQ ID NO: 423)] | > 75
YLDRGTGNVSFY [YLDRGTGNVSFY (SEQ ID NO: 449)] | > 75
ASEFGNHYLY [ASEFGNHYLY (SEQ ID NO: 396)] | > 75
GTELLSLVY [GTELLSLVY (SEQ ID NO: 150)] | > 75
TSDSNLNKY [TSDSNLNKY (SEQ ID NO: 185)] | > 75
VTAQVVGTERY [VTAQVVGTERY (SEQ ID NO: 446)] | > 75
YLDPVQRDLY [YLDPVQRDLY (SEQ ID NO: 198)] | > 75
YSDSLVQKGY [YSDSLVQKGY (SEQ ID NO: 451)] | > 75
VTEFSLNTY [VTEFSLNTY (SEQ ID NO: 193)] | > 75
RLDTPLYFSY [RLDTPLYFSY (SEQ ID NO: 169)] | > 75
LMDRPIFY [LMDRPIFY (SEQ ID NO: 157)] | > 75
GSDHQSPSSSSY [GSDHQSPSSSSY (SEQ ID NO: 410)] | > 75
LSELKPMSY [LSELKPMSY (SEQ ID NO: 419)] | > 75
YVGKEHMFY [YVGKEHMFY (SEQ ID NO: 201)] | > 75
NTSDMMGRMSY [NTSDMMGRMSY (SEQ ID NO: 431)] | > 75
LTELLERAAFY [LTELLERAAFY (SEQ ID NO: 421)] | > 75
LLEDKHFQSY [LLEDKHFQSY (SEQ ID NO: 417)] | > 75
QIDTGENLY [QIDTGENLY (SEQ ID NO: 433)] | > 75
